Assay results published in patent US8642565B2, “Increase of immune response and targeting by antigens and/or drug linkage” (Wittycell, priority 2007, dated 2014).

Experiments:
[1] = tested on: SIINFEKL (SEQ ID NO:1) induced CD8+ T cell response; SINFEKL-loaded targets; experiment: VITAL in vivo cytotoxicity assay, intravenous immunization (Example 1); parameters: species or system C57BI/6J CD45.2 female mice; conditions: 1 μg to 100 μg of Ova peptide alone, day 0, read out day 11
[2] = tested on: SIINFEKL-H2K^b specific CD8+ cells; experiment: Detection of SIINFEKL specific CD8+ cells by FACS, H-2 Kb SIINFEKL pentamer and CD8 co-staining (Example 2); assay type: in vivo, C57BI/6J CD45.2 female mice; conditions: 1 μg conjugate, intramuscular route, day 0 and 14; compared with mice treated with 50 μg of OVA alone (FIG. 2)
Source text: Forty-eight 9 week-old C57BI/6J CD45.2 female mice were used for immunisation. They were split into 9 groups: groups 1 and 2 included 3 animals and groups 3 to 9 included six animals.
The ovalbumin peptide consists in the […] sequence (SEQ ID NO:2) and the glycolipids used are PBS-6, PBS-14 and PBS-57.
The mice were vaccinated by intramuscular route at day 0 and 14 with the following solutions according to the different groups:
Detection of SIINFEKL specific CD8+ cells was monitored by FACS following H-2 Kb SIINFEKL pentamer and CD8 co-staining.

[3] = tested on: OVA specific IgG2a antibodies; experiment: Ovalbumin-specific IgG2a antibody titer after immunization (Example 4); assay type: in vivo, mice; conditions: 1 μg conjugate, intramuscular route, day 0 and day 14, samples 14 days after second immunization; compared with 50 μg of OVA alone (FIG. 5)
Procedure: (§1) The aim of this study was to evaluate IgG1 and IgG2a antibody response following immunization with ovalbumin in combination with different adjuvant covalently linked.
(§2) The sera tested were as follows:
(§3) Group 1; 6 mice immunized with 500 μg of ova protein with CFA/IFA (Positive control)
(§4) Group 2: 6 mice immunized with 50 μg of long ova peptide of sequence […] (SEQ ID NO:3; amino acids 316 to 338 of ovalbumin)
(§5) Group 3: 6 mice immunized with 50 μg of short ova peptide of sequence KISQAVHAAHA (SEQ ID NO:4; amino acids 323 to 333 of ovalbumin)
(§6) Group 4: 6 mice immunized with 1 μg PBS-6-OVA
(§7) Group 5: 6 mice immunized with 1 μg PBS-14-OVA
(§8) Group 6: 6 mice immunized with 1 μg PBS-57-OVA
(§9) All mice were immunized by intramuscular route at day 0 and day 14. All samples were collected 14 days following the second immunization and the IgG1 and IgG2a titers specific of ovalbumin were evaluated.

[4] = tested on: OVA specific IgG1 antibodies; experiment: Ovalbumin-specific IgG1 antibody titer after immunization (Example 4); assay type: in vivo, mice; conditions: 1 μg conjugate, intramuscular route, day 0 and day 14, samples 14 days after second immunization; compared with 50 μg of OVA alone (FIG. 4)
Procedure: as §1, §2, §3, §4, §5, §6, §7, §8, §9

[5] = tested on: SIINFEKL (SEQ ID NO:1) induced CD8+ T cell response; experiment: VITAL in vivo cytotoxicity assay, intramuscular immunization, OVA (Example 3); parameters: species or system C57BI/6J CD45.2 female mice; conditions: 1 μg conjugate, day 0, compared with mice treated with 50 μg of OVA alone (FIG. 3)
Procedure: Sixty-nine 9 week-old C57BI/6J CD45.2 female mice were used for immunisation. They were split into 14 groups: groups 1 to 5 included 3 animals, and groups 6 to 14 included 6 animals.
The in vivo cytotoxicity of SIINFEKL (SEQ ID NO:1) induced CD8^+ T cell response was evaluated by VITAL assay as described in Example 1.
The short ovalbumin peptide consists in the SIINFEKL sequence (SEQ ID NO:1; amino acids 257 to 264 of ovalbumin), the long ovalbumin peptide consists in the […] sequence (SEQ ID NO:2; amino acids 250 to 269 of ovalbumin) and the glycolipids used are PBS-6, PBS-14 and PBS-57.
The mice were vaccinated by intramuscular route at day 0 with the following solutions according to the different groups:
The read out was as described in Example 1.

Ova peptide: ovalbumine peptide of SIINFEKL sequence (SEQ ID NO:1), amino-acids 257-264 of ovalbumine [reference compound]
antigen-specific lysis (percent specific lysis) [1]: no antigen-specific lysis

B1: OVA covalently linked to PBS-6: Examples 2-4: ovalbumin peptide covalently linked to PBS-6 (Example 2 peptide VSGLEQLESIINFEKLTEWTS) (conjugate, UniProt P01012 2-386, looked up)
Ovalbumin: GSIGAASMEFCFDVFKELKVHHANENIFYCPIAIMSALAMVYLGAKDSTRTQINKVVRFDKLPGFGDSIEAQCGTSVNVHSSLRDILNQITKPNDVYSFSLASRLYAEERYPILPEYLQCVKELYRGGLEPINFQTAADQARELINSWVESQTNGIIRNVLQPSSVDSQTAMVLVNAIVFKGLWEKAFKDEDTQAMPFRVTEQESKPVQMMYQIGLFRVASMASEKMKILELPFASGTMSMLVLLPDEVSGLEQLESIINFEKLTEWTSSNVMEERKIKVYLPRMKMEEKYNLTSVLMAMGITDVFSSSANLSGISSAESLKISQAVHAAHAEINEAGREVVGSAEAGVDAASVSEEFRADHPFLFCIKHIATNAVLFFGRCVSP
modifications: covalently linked to glycolipid PBS-6
percentage of SIINFEKL-H2K^b specific CD8+ in the blood [2]: stronger percentage | titer of IgG2a specific of ovalbumin [3]: higher titers | titer of IgG1 specific of ovalbumin [4]: higher titers | percentage of SIINFEKL-specific cytolytic activity in the blood [5]: stronger percentage

B2: OVA covalently linked to PBS-57 (conjugate, UniProt P01012 2-386, looked up)
Ovalbumin: GSIGAASMEFCFDVFKELKVHHANENIFYCPIAIMSALAMVYLGAKDSTRTQINKVVRFDKLPGFGDSIEAQCGTSVNVHSSLRDILNQITKPNDVYSFSLASRLYAEERYPILPEYLQCVKELYRGGLEPINFQTAADQARELINSWVESQTNGIIRNVLQPSSVDSQTAMVLVNAIVFKGLWEKAFKDEDTQAMPFRVTEQESKPVQMMYQIGLFRVASMASEKMKILELPFASGTMSMLVLLPDEVSGLEQLESIINFEKLTEWTSSNVMEERKIKVYLPRMKMEEKYNLTSVLMAMGITDVFSSSANLSGISSAESLKISQAVHAAHAEINEAGREVVGSAEAGVDAASVSEEFRADHPFLFCIKHIATNAVLFFGRCVSP
modifications: covalently linked to glycolipid PBS-57
percentage of SIINFEKL-H2K^b specific CD8+ in the blood [2]: stronger percentage | titer of IgG2a specific of ovalbumin [3]: higher titers | titer of IgG1 specific of ovalbumin [4]: higher titers | percentage of SIINFEKL-specific cytolytic activity in the blood [5]: stronger percentage

B3: OVA covalently linked to PBS-14 (conjugate, UniProt P01012 2-386, looked up)
Ovalbumin: GSIGAASMEFCFDVFKELKVHHANENIFYCPIAIMSALAMVYLGAKDSTRTQINKVVRFDKLPGFGDSIEAQCGTSVNVHSSLRDILNQITKPNDVYSFSLASRLYAEERYPILPEYLQCVKELYRGGLEPINFQTAADQARELINSWVESQTNGIIRNVLQPSSVDSQTAMVLVNAIVFKGLWEKAFKDEDTQAMPFRVTEQESKPVQMMYQIGLFRVASMASEKMKILELPFASGTMSMLVLLPDEVSGLEQLESIINFEKLTEWTSSNVMEERKIKVYLPRMKMEEKYNLTSVLMAMGITDVFSSSANLSGISSAESLKISQAVHAAHAEINEAGREVVGSAEAGVDAASVSEEFRADHPFLFCIKHIATNAVLFFGRCVSP
modifications: covalently linked to glycolipid PBS-14
percentage of SIINFEKL-H2K^b specific CD8+ in the blood [2]: stronger percentage | titer of IgG2a specific of ovalbumin [3]: higher titers | titer of IgG1 specific of ovalbumin [4]: higher titers | percentage of SIINFEKL-specific cytolytic activity in the blood [5]: stronger percentage
